The DeepSol protein solubility set

Experiment: soluble on expression in E. coli; label from the status in PepcDB or PDB records

| Sequence | soluble on expression in E. coli |
| --- | --- |
| MGKALIIGCGGVASVAVHKCVQNSEVFEEICIASRTKSKCDALKAKLDGGKTKITTAQVDANNVDELIALIEEVKPDVVMNLALPYQDLTIMDACLATKTNYLDTANYEPEDTAKFEYKWQWDYRERFEKAGITALLGSGFDPGVTGVFSAYALKHHFDEIEYIDILDCNAGDHGYPFATNFNPEINIREVSANGRYWENGEWVETNPMEIKRVYNFPEVGEKDMYLLYHEELESLAVNIPGIKRIRFFMTFSESYLTHLKCLENVGMTSIEPIEFEGKEIIPLQFLKAVLPDPASLGPRTKGKTNIGCIFKGKKDGKDKTYYLYNVCDHEECYKEVGSQAVSYTTGVPAMIGAMMLMTGKWNKPGVYNIEEFDPDPFMEALNKWGLPWKEDHNPQLVDSDPIKETELVR | not soluble |
| MGKEYVVIGLGRFGGSIVRELNALDMDVMAIDHDENRVNEYSDIATHAVVADTTDEAVMKSLGIRNFDHVIVAIGENIQSSTLTTLILKELGVKKVTAKAQNDYHAKILNKIGADTVVHPERDMGRRIAHNVASASVLDYLELADEHSIVELKATEKMAGQSIIDLDIRAQYGINIIAIKRGKEFIISPNPNINLEIGDILIMIGHDNDLNRFEKNIATR | not soluble |
| MGKFSNQKKNRVKNKVAVTVKKAQRMKADAKNAKKDGEVDVEMKEEVVRVRGLAVSSLKKLASGELQNVPKVNEKKIIRKTELPVRENKKILDAPTGKRGTTAQYITKKKAKKMYKKMTHDARDKYRKIQAELAGDGEDDEEGEAEVMEQ | not soluble |
| MGKLNLYQMKKVEIIVRGEDLDFVLDLLEKAGVKGYTIIHNLSGKGSHGFHEGHLLFNEEDVLDMVISVMPEEKVEAILEGLTPFFNKHSGVVFVSDVQVSRLEKFKNG | not soluble |
| MGKLVEGVWHDVWYDTKANGGKFVREDAGFRDWIKNDSEAVFQPESGRYHLYVSLACPWAHRTLIFRKLKGLEPHIDVTVVCPDMLSQGWQMGLPEPLFGHTRMHQIYTQAKPDYTGRVTVPVLWDKKTNTIVSNESSEIIRMFNSAFNDLTGNHDDYYPEPLRGVIDEWNDYIYPNVNNGVYRCGFATSQEAYEEAFESLFSALDKIDAHLATHRYLAGNKITEADWRLFTTLVRFDAVYVGHFKCNKQRIADYVNIQGYLKELYQIDGIADTTDFYHVKRHYYFSHTGINPTQVVPKGPDLDFSSPHQREMIG | soluble |
| MGKQLESRTIPPYEPKAGEEYMSPEQLAHFRKILEYQRAELSMEIDRAVHVMQEESTIFADPADRATQESDMALELRSRDRERKLIKKIDEIFTKIDSGEYGYCEKCGIEIGLKRLEARPTASLCIDCKTLDEIRERQMAK | not soluble |
| MGKSELSGRLNWQALAGLKASGAEQNLYNVFNAVFEGTKYVLYEKPKHLKNLYAQVVLPDDVIKEIFNPLIDLSTTQWGVSPAFAIENTETHKILFGEIKRQDGWVEGKDPSAGRGNAHERSCKLFTPGLLKAYRTIGGINDEEILPFWVVFEGDITRDPKRVREITFWYDHYQDNYFMWRPNESGEKLVQHFNEKLKKYLD | soluble |
| MGKSSKPIQTTQNTTQTNAPPEWAKGIFERAAKDAMSFYNQGSGKAVYDGQRVAGLSDQTKNAINGLSNNTHNYDNNYLNGLATGQNSTSQNLKNMASGHEIGNNPYFKEALQNTLNKASDTINSSLAGAGRYGSGAHTGVLADELGSIATQALSQQYNQDVNNMMQANGMIDQANQNQLASANNFFQGQGQANLNALSGGGLLDANHQQQLDEERQKWEQQNNLDWDQLSKLLAAGTASAGNYGMQTEQRTQFTPQTKLNPWQTIGNVGTILGTFAGLSDRRAKENIREAGQKKGYTLYEYNYKGSPERYRGVMAQDVLRSNPEAVFYNNTTGLLHVDYDKLGFNMERVQ | not soluble |
| MGKVTGFLEIERHDRVYAPVTDRVKNYNEFVVPLSEKDLRDQAARCMNCGIPYCHGTGSAQPGATGCPVNNQIPDWNDLVYNGYWQEAARTLHSTNNFPEFTGRICPAPCEASCTLNIDDNPVTIKTIECAIVDTAFDNGWVTPEIAAVKTGQSVAVVGAGPAGLACAQQLARAGHDVHVYEKFAKAGGLLRYGIPDFKMEKTLIDRRVAQMEAEGVTFHYGAPVGGSAPGAVDPAELLKQYDAVALTGGAEAPRDLPIPGRELGGIHFAMDFLTQQNRRVSGEAVNGTDILAAGKNVVVIGGGDTGSDCIGTSIRQGAKSVTQIEIMPAPPERENKALTWPNWPMKMRTSSSQAEGAAREFAVMTQSFEGEGGVVKKLNCVRVDAKFQPIPGTEFTLEADLVLLAMGFVSPVKEGLLTQLGVALDPRGNVAADLSHFTTSVDKVFAAGDMRRGQSLVVWAIREGRLCAQAIDRFLMGATTLPRLEHHHHHH | not soluble |
| MGLADDAPLGYLLYRVGAVLRPEVSAALSPLGLTLPEFVCLRMLSQSPGLSSAELARHASVTPQAMNTVLRKLEDAGAVARPASVSSGRSLPATLTARGRALAKRAEAVVRAADARVLARLTAPQQREFKRMLEKLGSD | not soluble |
| MGLEKTVKEKLSFEGVGIHTGEYSKLIIHPEKEGTGIRFFKNGVYIPARHEFVVHTNHSTDLGFKGQRIKTVEHILSVLHLLEITNVTIEVIGNEIPILDGSGWEFYEAIRKNILNQNREIDYFVVEEPIIVEDEGRLIKAEPSDTLEVTYEGEFKNFLGRQKFTFVEGNEEEIVLARTFCFDWEIEHIKKVGLGKGGSLKNTLVLGKDKVYNPEGLRYENEPVRHKVFDLIGDLYLLGSPVKGKFYSFRGGHSLNVKLVKELAKKQKLTRDLPHLPSVQALLEHHHHHH | soluble |
| MGLIPPKWLERMVEAYRDPSLERAVYGEVLTRSDIERLLSETPLHPMAAAADYYARVIKKGVGSYIVNIYLAYTNVCVTRCTFCDFYVPPERRSSGYTHPPEHLGRVAGLARKRLGVREVHMVGGNDPELPLEYYEEAIREIKRVAPGVVLKAFTAEEIGFIAKATGNTPKEVLARFREAGLDALPGGGAEVLSEEVRKRIAPLKISSDEYLEIHRLAHSMGIRSNITLLYAHIEEPRHVAEHLYRIRRLQEETGGFISFIPIRFNPGKTPLSRHPEYVKKGDRGGLYDLRIVAASRLALLGAIDNIMAYWVSMGEKLAQAALSHGANDIGGTFYNESVISAASSLRKRKGMSPARLVFNIATAGWTPMERDTFYNYYPPRAEPPRLPWMQG | not soluble |
| MGLLPTDRWLEEDEGDPLRLCARLAPLFGKMPAREIYSYLRLYGMYRSTRQAERLLPEMKERRLWERLGRLYERQRGIWKGPDVPVFLLPADDENRKLVREFQGKGGVAFADKLFFFLLPDHCDEEIAALVAHEYNHVCRLKQLPNEGEDATLLDAVVMEGLAEHAVAETVGAEQCAGWTKYYTDREMERFWRRYIVPNQHLPVSHPHTSRILYGLGWHPKMGGYAVGYAIVRRCLERGCSLAQLMTMEAKDIAELAGFSGKQQGAS | not soluble |
| MGLNIGDLLGSTPAKDQGCSRTCESQFCTIAPLLRYGKYCGILYSGCPGERPCDALDACCMVHDHCVDTHNDDYLNTMCNENLLSCIDRVSGATFPGNKCNVGQTASVIRGVIETAVFAGKILHKRDDGQ | soluble |
| MGLPCYHMQEVIMNKANKGHLDFWRKVANSPPGSQHDWNRVFANYTATVDNPGCCVWKELLAAYPDAKVLLTLHPRGAEAWYESTIDTIYFTENVWQFKILEWLTPFGWKFGDMSRKLIWGRTLDGVMNDRAKAVARYNTYVEQVKAAVPPHKLLVYKVTEGWAPLCDFLGLEHHHHHH | not soluble |
| MGLQELDPLAQLSLPPGFRFYPTDEELMVEYLCRKAAGHDFSLQLIAEIDLYKFDPWVLPSKALFGEKEWYFFSPRDRKYPNGSRPNRVAGSGYWKATGTDKVISTEGRRVGIKKALVFYIGKAPKGTKTNWIMHEYRLIEPSRRNGSTKLDDWVLCRIYKKQTSAQKQAYNNLMTSGREYSNNGSSTSSSSHQYDDVLESLHEIDNRSLGFAAGSSNALPHSHRPVLTNHKTGFQGLAREPSFDWANLIGQNSVPELGLSHNVPSIRYGDGGTQQQTEGIPRFNNNSDVSANQGFSVDPVNGFGYSGQQSSGFGFI | soluble |
| MGNLICTKNGGEPEIMVAAHMDEIGFAVKYIDDKGFIRIAPIGGWFSQIALAQRVVLYGKKKVYGVIGCKPPHLMKDEERKKGIEIKDMFVDIGASSKEEVLEMGINVGTPVALDREIVELANGRITGKAFDNRVGVAVMIEAVRRAKADITIHAVATVQEEVGLKGARTSAFAIEPTAAIAVDTCVAADFPGSESAHMDVKLGKGAAITVIDASGRGLIASPKVLRWLTETAEKYGIPYQLEVAEGGTTDATAIHLTKAGIPAGVVSVPARYIHSPVEVVDLKDVESAVEIVARAIENAKNYF | soluble |
| MGNTMCPKMESAFSLLGKRWNGLIIHVLMDGPKRFKEITETIPMISQKMLAERLKELEQNEIVERQVLPETPVKVIYTLTEKGTALQAVFQEMQAWADQFCEPGDTVCEEEKLEHHHHHH | soluble |
| MGPIVSPALHAVQASRFEDVRQARSATGTRTDEGLRRSAGGRYAGASSRGTYQSGAGRVTNPLRRSKVSESLSIHHDVGGHQFETTVDGHRAYLAYMDLGKQTLDIYRTFVPDSLRGRGIAAALTEHALQYADRMGYSVIPSCSYVERYIERRQRQADPAALEHHHHHH | soluble |
| MGQEYYFCRCGRSKKQPYCDGSHSGTGMKPMSFTAEKDEDAYLCQCKHTANAPFCDGTLEHHHHHH | not soluble |
| MGQNSSQIPEHELEHLSIESGLSRGGILKLYGRFISLATHRDKTTNEYFLTKGDFQSIAELKQNPLGDRIIDAFFADAEVLERRKVYFKDFVKVLSHFRPINKNKPHPWNSREAKLRFAFTMYDLNKSGTITKDEFQDILAMMIGVGVPKDQVNSIADRTMREADRDGDGFITFQEFCNAMEKTDIEQKMSFRFLT | not soluble |
| MGRGVYTLALRGLAPLIWLWMWRRARRAGGQWELFAPARFGRAGARAPAPLAAPVWVHAVSLGETRAAQPLVQALLERGLPVLLTHTTATGRAEGERLFGAAIGRGQLQQAWLPYDFPGATRRFLARHAPRCGLLIEREVWPNLLAAARAQGVPMALVSARFSASSLRQAGWLGQALREALAGLGRVLAQTDEDGARLCQAGANAYTVTGSLKFDVALPEAQLRVGHAWAGATGRPVIALASTREGEDAMFIEAIGALQAHRAATPRPLILLIPRHPQRFDEAAAQLQAAGLAYARRSAGSGEPGPHIDVLLGDTLGEMPFYYAAADVAIVGGSFARLGGQNLIEACAAGTPVIVGPHTFNFKDAARDAIAAGAALRAPDARTALDWALQLLAEPARRQAMSEAARAWTAAHAGATRRTLDALEDWLAPRLEHHHHHH | soluble |
| MGRKWANIVAKKTAKDGATSKIYAKFGVEIYAAAKQGEPDPELNTSLKFVIERAKQAQVPKHVIDKAIDKAKGGGDETFVQGRYEGFGPNGSMIIAETLTSNVNRTIANVRTIFNKKGGNIGAAGSVSYMFDNTGVIVFKGTDPDHIFEILLEAEVDVRDVTEEEGNIVIYTEPTDLHKGIAALKAAGITEFSTTELEMIAQSEVELSPEDLEIFEGLVDALEDDDDVQKVYHNVANL | soluble |
| MGRLGWVDPESFMQRNHELMDAYSAGKLAMEEFMAFSLEPMAGRTPEEVDHLVGPWVEDVIEPIIYSDACKCIAQHRAKGDRILVISASGVHLVKPIAERLGIDEVLGIELDVQHGVYSGATVGVLTYREGKITRLMEWLDAEGENLEGASFYSDSRNDLPLLLKVDHPNVVNPDPVLLEHAQQAGWPVHTWV | not soluble |
| MGRSSRKDEILQAALACFSEHGVDATTIEMIRDRSGASIGSLYHHFGNKERIHGELYLAGIGQYAALLEAGFARARSAEETVRLLVTSYIDWVVANPDWARFILHSRGRVEAGELGERLRADNQAHFARIHAALAGYRAEGLFREMPDDCFASVVIGPAHDLARQWLAGRTRVALADCRELLAQVAWDSVRAA | not soluble |
